Source: patent US12065466B2, “Methods and compositions for protein sequencing” (Quantum-Si Incorporated, priority 2020, dated 2024)

tested on: amino acid at a terminal position of a polypeptide; experiment: Amino acid binding preference of recognition proteins (Tables 1 and 2); conditions: Table 1, ClpS proteins; amino acid identity at a terminal position of a polypeptide; inferred from literature and/or demonstrated by the inventors
Text: It should be appreciated that these sequences and other examples described herein are meant to be non-limiting, and recognition molecules in accordance with the application can include any homologs, variants thereof, or fragments thereof minimally containing domains or subdomains responsible for peptide recognition.

| Binding Pref. | Molecule |
| --- | --- |
| I, L, V | PS549: PS372-homologous ClpS protein, SEQ ID NO: 63 (protein, listed as Planctomycetes bacterium) MSESITTLPKKSRRLKEEEEQKTKRQPPYNVILLNDDDHTFEYVIFMLQKLFGHPPERGMQMAKEVHTTGRVIVMTTALELAELKRDQIHAFGPDPLIDRCKGSMSATIEPAPI |
| F, W | PS432: ClpS protein, SEQ ID NO: 55 (protein) MIGVEARTSSAPELAIETEIRLAGLWHVIVINDPVNLMSYVVMVLRKIFGFDDTKARKHMLEVHENGRSIVWSGEREPAEAYANTLHQWHLSAVLERDETD |
| I, L, V | PS547: PS372-homologous ClpS protein, SEQ ID NO: 61 (protein, listed as Gemmataceae bacterium) MGFPTDFRQSIEISTPLGSQQPRFSNASSEPALADPVLVINPRIQPRYHVILLNDDDHTYRYVIEMMLIVFGHPPEKGFLIAKEVDKAGRAICLTTSLEHAEFKQEQVHAYGADPYFGPKCKGSMTAVLEPAE |
| I, L, V | PS561: PS372-homologous ClpS protein, SEQ ID NO: 75 (protein, Roseimaritima sp. JC651) MAELQTAVVEPTTRPEQDEKQSQSRPKRQPRYNVILWDDPDHSYDYVIMMLKELFGHPRQRGHQMAEEVDTTGRVICLTTTMEHAELKRDQIHAYGSDEGITRCKGSMSASIEPVPE |
| I, L, V | PS563: PS372-homologous ClpS protein, SEQ ID NO: 77 (protein, listed as Acidobacteria bacterium) MSSRSATAYPEVEDDTSDQLQPLYHVILLNDEDHTYDYVIEMLQKIFGFPESKAFSHAVEVDTKGTTILLTCDLEQAERKRDLIHSYGPDWRLPRSLGSMAAVVEPAAG |
| I, L, V | PS565: PS372-homologous ClpS protein, SEQ ID NO: 79 (protein, Aquisphaera sp. JC650) MSEFDHEHSGDTSVADPIVTTKTAPKPQKHAENETETRRQPPYNVIILNDEEHTFDYVIELLCKVFRHSLATAQELTWRIHLTGRAVVLTTHKELAELKRDQVLAYGPDPRMSVSKGPLDCFIEPAPGG |
| F, Y, W, L | PS434: ClpS protein, SEQ ID NO: 57 (protein) MSRLPWKQEAKFAATVIIDFPDATLEAPTIEKKEATEQQIEMPWNVVVHNDPVNLMSYVTMVFQRVFGYPRERAEKHMLEVHHSGRSILWSGLRERAELYVQQLHGYLLLATIEKTV |
| I, L, V | PS554: PS372-homologous ClpS protein, SEQ ID NO: 68 (protein, listed as Planctomycetes bacterium) MSDSASATVEVQADPPADATARSQPTPARSTGSKPKRQPRYHVVLWNDDDHTYEYVIAMLRRLFGIEPEKGFRIAEEVDQSGRAVVLTTTREHAELKRDQIHAFGADRLLARSKGSMSASIEPEA |
| I, L, V | PS553: PS372-homologous ClpS protein, SEQ ID NO: 67 (protein, listed as Planctomycetes bacterium) MPASASAVTEPPVSLPEAAAPRPKDRPKRQPRYHVILWNDDDHTYQYVVAMLRQLFGHPPEKGFTLAKQVDKDGRVVVLTTTKEHAELKRDQIHAFGADRLLARSKGSMSASIEPEASTG |
| I, L, V | PS560: PS372-homologous ClpS protein, SEQ ID NO: 74 (protein, listed as Planctomycetes bacterium) MTETITTPAERTQTQAEPRSDRAWLWNVVLLDDDEHTYEYVIRMLHTLFGMPVERAFRLAEEVDARGRAVVLTTHKEHAELKRDQVHAFGKDALIASCAGSMSAVLEPAECGSDDED |
| F, Y, W, L | PS430: ClpS protein, SEQ ID NO: 53 (protein) MQPFEETYTDVLDEVVDTDVHNLVVFNDDVNTFDHVIETLIDVCKHTPEQAEQCTLLIHYKGKCSVKNGSWEELVPMRNEICRRGISAEVLK |
| F, Y, W, L | PS435: ClpS protein, SEQ ID NO: 58 (protein) MTLSVALGPDTQESTQTGTAVSTDTLTAPDIPWNLVIWNDPVNLMSYVSYVFQSYFGYSETKANKLMMEVHKKGRSIVAHGSKEQVEQHAVAMHGYGLWATVEKATGGNSGGGKSGGPGKGKGKRG |
| I, L, V | PS551: PS372-homologous ClpS protein, SEQ ID NO: 65 (protein, listed as Rubrobacter indicoceani) MPSAAPAKPKTKRQSRTQGMPPYNVVLLDDDDHTYGYVIEMLNKVFGHPPEKGFELATEVDKNGRVIVMTTNLEVAELKRDEVHAFGPDPLMPRSKGSMSAVVERAG |

The remaining lines, values behind:

| Molecule | Binding Pref. |
| --- | --- |
| PS433: ClpS protein, SEQ ID NO: 56 (protein) MMSSLKECSIQALPSLDEKTKTEEDLSVPWKVIVLNDPVNLMSYVVMVFRKVFGYNENKATKHMMEVHQLGKSVLWTGQREEAECYAYQLQRWRLQTILEKDD | F, Y, W, L |
| PS566: PS372-homologous ClpS protein, SEQ ID NO: 80 (protein, listed as Planctomycetaceae bacterium) MSSPSSLDDVQVSTSRAKPANETRTRKQPPYAVIVENDDHHTFLYVIEALMKVCGHAPEKGFVLAQQIHTQGKAMVWSGTLELAELKRDQLRGFGPDNYAPRPVTFPLGVTIEPLP | I, L, V |
| PS550: PS372-homologous ClpS protein, SEQ ID NO: 64 (protein, listed as Planctomycetes bacterium) MPTFTEPEVVNDTRILPPYHVILLNDDDHTYEYVIHMLQTLFGHPQERGFQLAVEVDKKGKAIVFTTSKEHAEFKRDQIHAFGADPLSSKNCKGSMSAVIEPSF | I, L, V |
| PS546: PS372-homologous ClpS protein, SEQ ID NO: 60 (protein, listed as Planctomycetales bacterium) MSDTITLPGRPEVERDERTRRQPPYNVILHNDDDHTFEYVIVMLNQLFGYPPEKGYEMAKEVHLNGRVIVLTTSKEHAELKRDQIHAFGPDPFSSKDCKGSMSASIEPAY | I, L, V |
| PS558: PS372-homologous ClpS protein, SEQ ID NO: 72 (protein, listed as Planctomycetes bacterium) MTATTADPDRTTAEKTTKKARRSGQPKRQPRYHVILWNDNDHTYQYVVAMLQQLFGHPATTGLKLATEVDRTGRAVILTTTREHAELKRDQIHAFGADRLLARSKGAMSASIEPEAE | I, L, V |
| PS562: PS372-homologous ClpS protein, SEQ ID NO: 76 (protein, listed as Rubripirellula amarantea) MSDQQSMVAEPEVVVHTQDEKKLEKQNKRKKQPRYNVVLWDDTDHSYDYVVLMMKQLFHHPIETGFQIAKQVDKGGKAICLTTTMEHAELKRDQIHAFGKDDLIARCTGSMSATIEPVPE | I, L, V |
| PS564: PS372-homologous ClpS protein, SEQ ID NO: 78 (protein, Planctomycetes bacterium Poly21) MFEEVVSVAVAEPKTKKQSRTKPKRQPPYHVILWDDTDHTFDYVIKMMGELFRMPREKGYQLAKEVDTSGRAICMTTTLELAELKRDQIHAFGRDDASAHCKGSMSATIEPAEG | I, L, V |
| PS548: PS372-homologous ClpS protein, SEQ ID NO: 62 (protein, listed as Gemmataceae bacterium) MSDTITLPEEKTDVRTKRQPPYHVILLNDDDHTYQYVIYMLQTLFGHPPETGFKMAQEVDKTGRVIVDTTSLERAELKRDQIHAFGPDPYIERCKGSMSAMIEPSE | I, L, V |
| PS555: PS372-homologous ClpS protein, SEQ ID NO: 69 (protein, Planctomycetes bacterium RBG_16_64_12) MADSAQTGVAEPIQETLRRRKLRDDRRPKRQPPYHVILWNDNDHTYAYVVVMLMQLFGYPAEKGYQLASEVDTQGRAVVLTTTKEHAELKRDQIHAYGKDGLIEKCKGSMWATIEPAPGE | I, L, V |
| PS559: PS372-homologous ClpS protein, SEQ ID NO: 73 (protein, listed as Planctomycetaceae bacterium) MNQAAISPNPDIKPNPSTHKKRASQRQPRYHVILWNDNDHTYHYVVTMLQKLFGHPPRTGIKMATEVDKKGKVIVLTTSREHAELKRDQIHAFGADKLIRRSKGAMAASIEPES | I, L, V |
| PS545: PS372-homologous ClpS protein, SEQ ID NO: 59 (protein, listed as Planctomycetales bacterium) MSEPMTLPAIPQPRLKERTQRQPPYNVILLNDDDHSYEYVIAMLQVLFGYPREKGYQMAKEVDSTGRVILLTTTREHAELKQEQIHAFGPDPLMARCQGSMTAVIEPAV | I, L, V |
| PS552: PS372-homologous ClpS protein, SEQ ID NO: 66 (protein, Fimbriiglobus ruber) MSKTSTLPEVESESAQKLKYQPPYHVILLNDDDHSYVYVITMLKELFGHPEQKGYQLADAVDKQGRAIVFTTTREHAELKQEQIHAYGPDPTIPRCKGAMTAVIEPAE | I, L, V |
| PS556: PS372-homologous ClpS protein, SEQ ID NO: 70 (protein, listed as Blastopirellula marina) MGDSNTSVAEPGEVTVVTTKPAPKKAKPKRQPKYHVVLWNDDDHTYEYVILMMHELFGHPVEKGFQIAKTVDADGRAICLTTTKEHAELKRDQIHAYGKDELIARCRGSMSSTIEPEC | I, L, V |
| PS374: ClpS protein, SEQ ID NO: 7 (protein) MRWEDPLAAEPVTPGVAPVVEEETDAAVETPWRVILYDDDIHTFEEVILQLMKATGCTPEQGERHAWTVHTRGKDCVYQGDFFDCFRVQGVLREIQLVTEIEG | F, Y, W, L |
